Paper PMC9814621, “Nanoscopic investigation of C9orf72 poly-GA oligomers on nuclear membrane disruption by a photoinducible platform” (Communications Chemistry, 2021)
Ends that are not written are not given here.

Columns and labels:
[1] = target: the molecule itself; experiment: transmission electron microscopy; time course of the probe solution with or without irradiation (ADP-1 50 uM; 365 nm, 32 mW/cm^2, 1 min)
[2] = target: the molecule itself; experiment: fluorescence lifetime imaging microscopy (self-quenching); SH-SY5Y cells treated with 1 uM ADP-2 and photoinitiated; fixed 2, 12 and 24 h after UV

| Protein | binding result [1] | binding result [2] |
| --- | --- | --- |
| CGAGAGAGAGAGAGAGAGAGAGAGA (N-terminal cysteine followed by 12 glycine-alanine repeats; poly-GA dipeptide repeat translated from the G4C2 repeat expansion of C9orf72 (not part of the C9orf72 protein itself); also called (GA)12; ADP-1-derived GA DPRs; source: synthetic peptide (Fmoc chemistry, HPLC purified), released from ADP-1 by 365-nm light; also released inside SH-SY5Y cells treated with ADP-1) [GA DPRs fragment photoreleased from ADP-1 [cysteine-(glycine-alanine)12]] | binds | – |
| C(Alexa Fluor 488 C5 maleimide)GAGAGAGAGAGAGAGAGAGAGAGA (N-terminal cysteine (labelled) followed by 12 glycine-alanine repeats; poly-GA dipeptide repeat of the C9orf72 repeat expansion; also called AF-488-labeled GA DPRs; ADP-2-derived GA DPRs; source: also released inside SH-SY5Y cells treated with ADP-2) | – | binds |
